These are literature values, as cited in PMC3179904.

pKd: −log10 of the molar value.

In the data set the target is CheA (Escherichia coli) (UniProt P07363).
UniProt P07363, sequence (P07363 whole entry): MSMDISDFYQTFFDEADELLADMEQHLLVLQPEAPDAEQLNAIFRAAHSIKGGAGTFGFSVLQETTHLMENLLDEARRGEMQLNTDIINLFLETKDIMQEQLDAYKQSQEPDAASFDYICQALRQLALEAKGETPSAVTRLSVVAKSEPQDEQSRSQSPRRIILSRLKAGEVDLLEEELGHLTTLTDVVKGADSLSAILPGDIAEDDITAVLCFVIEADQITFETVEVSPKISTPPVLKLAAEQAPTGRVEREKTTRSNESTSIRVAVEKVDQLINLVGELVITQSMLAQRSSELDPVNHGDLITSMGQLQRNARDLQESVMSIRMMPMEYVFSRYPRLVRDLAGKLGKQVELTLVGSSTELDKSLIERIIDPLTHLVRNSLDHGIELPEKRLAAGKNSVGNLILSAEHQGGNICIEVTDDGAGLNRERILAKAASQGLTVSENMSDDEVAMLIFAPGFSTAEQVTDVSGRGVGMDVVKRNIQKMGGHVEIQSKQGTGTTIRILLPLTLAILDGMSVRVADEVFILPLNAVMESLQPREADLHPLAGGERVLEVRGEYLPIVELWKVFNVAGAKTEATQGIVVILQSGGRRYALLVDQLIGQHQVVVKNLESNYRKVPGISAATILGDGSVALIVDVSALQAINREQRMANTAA

On to CheW (from UniProt P0A964), for which the pKd is 4.77.
